According to article PMC9243173, “Iron-regulated assembly of the cytosolic iron–sulfur cluster biogenesis machinery” (The Journal of Biological Chemistry, 2022):

B1: nucleotide-binding protein 1 (NUBP1) (natural protein, human (endogenous in Flp-In T-REx 293), UniProt P53384 1-320, looked up)
chain: MEEVPHDCPGADSAQAGRGASCQGCPNQRLCASGAGATPDTAIEEIKEKMKTVKHKILVLSGKGGVGKSTFSAHLAHGLAEDENTQIALLDIDICGPSIPKIMGLEGEQVHQSGSGWSPVYVEDNLGVMSVGFLLSSPDDAVIWRGPKKNGMIKQFLRDVDWGEVDYLIVDTPPGTSDEHLSVVRYLATAHIDGAVIITTPQEVSLQDVRKEINFCRKVKLPIIGVVENMSGFICPKCKKESQIFPPTTGGAELMCQDLEVPLLGRVPLDPLIGKNCDKGQSFFIDAPDSPATLAYRSIIQRIQEFCNLHQSKEENLISS
notes: also called NBP35; source: endogenous, Flp-In T-REx 293 lysate
B2: nucleotide-binding protein 2 (NUBP2), endogenous (natural protein, human (endogenous in Flp-In T-REx 293), UniProt Q9Y5Y2 1-271, looked up)
chain: MEAAAEPGNLAGVRHIILVLSGKGGVGKSTISTELALALRHAGKKVGILDVDLCGPSIPRMLGAQGRAVHQCDRGWAPVFLDREQSISLMSVGFLLEKPDEAVVWRGPKKNALIKQFVSDVAWGELDYLVVDTPPGTSDEHMATIEALRPYQPLGALVVTTPQAVSVGDVRRELTFCRKTGLRVMGIVENMSGFTCPHCTECTSVFSRGGGEELAQLAGVPFLGSVPLDPALMRTLEEGHDFIQEFPGSPAFAALTSIAQKILDATPACLP
notes: also called CFD1; source: endogenous, Flp-In T-REx 293 lysate
B3: MMS19 nucleotide excision repair protein homolog (MMS19) (natural protein, human (endogenous in Flp-In T-REx 293), UniProt Q96T76 1-1030, looked up)
chain: MAAAAAVEAAAPMGALWGLVHDFVVGQQEGPADQVAADVKSGNYTVLQVVEALGSSLENPEPRTRARAIQLLSQVLLHCHTLLLEKEVVHLILFYENRLKDHHLVIPSVLQGLKALSLCVALPPGLAVSVLKAIFQEVHVQSLPQVDRHTVYNIITNFMRTREEELKSLGADFTFGFIQVMDGEKDPRNLLVAFRIVHDLISRDYSLGPFVEELFEVTSCYFPIDFTPPPNDPHGIQREDLILSLRAVLASTPRFAEFLLPLLIEKVDSEVLSAKLDSLQTLNACCAVYGQKELKDFLPSLWASIRREVFQTASERVEAEGLAALHSLTACLSRSVLRADAEDLLDSFLSNILQDCRHHLCEPDMKLVWPSAKLLQAAAGASARACDSVTSNVLPLLLEQFHKHSQSSQRRTILEMLLGFLKLQQKWSYEDKDQRPLNGFKDQLCSLVFMALTDPSTQLQLVGIRTLTVLGAQPDLLSYEDLELAVGHLYRLSFLKEDSQSCRVAALEASGTLAALYPVAFSSHLVPKLAEELRVGESNLTNGDEPTQCSRHLCCLQALSAVSTHPSIVKETLPLLLQHLWQVNRGNMVAQSSDVIAVCQSLRQMAEKCQQDPESCWYFHQTAIPCLLALAVQASMPEKEPSVLRKVLLEDEVLAAMVSVIGTATTHLSPELAAQSVTHIVPLFLDGNVSFLPENSFPSRFQPFQDGSSGQRRLIALLMAFVCSLPRNVEIPQLNQLMRELLELSCCHSCPFSSTAAAKCFAGLLNKHPAGQQLDEFLQLAVDKVEAGLGSGPCRSQAFTLLLWVTKALVLRYHPLSSCLTARLMGLLSDPELGPAAADGFSLLMSDCTDVLTRAGHAEVRIMFRQRFFTDNVPALVQGFHAAPQDVKPNYLKGLSHVLNRLPKPVLLPELPTLLSLLLEALSCPDCVVQLSTLSCLQPLLLEAPQVMSLHVDTLVTKFLNLSSSPSMAVRIAALQCMHALTRLPTPVLLPYKPQVIRALAKPLDDKKRLVRKEAVSARGEWFLLGSPGS
notes: MMS19 nucleotide excision repair protein homolog, component of the CIA targeting complex, endogenous; source: endogenous, Flp-In T-REx 293 lysate
B4: probable cytosolic iron-sulfur protein assembly protein CIAO1 (natural protein)
chain: not shown
notes: CIAO1, component of the CIA targeting complex, endogenous; source: endogenous, Flp-In T-REx 293 lysate
B5: cytosolic iron-sulfur assembly component 2B (CIAO2B) (natural protein, human (endogenous in Flp-In T-REx 293), UniProt Q9Y3D0 1-163, looked up)
chain: MVGGGGVGGGLLENANPLIYQRSGERPVTAGEEDEQVPDSIDAREIFDLIRSINDPEHPLTLEELNVVEQVRVQVSDPESTVAVAFTPTIPHCSMATLIGLSIKVKLLRSLPQRFKMDVHITPGTHASEHAVNKQLADKERVAAALENTHLLEVVNQCLSARS
notes: CIAO2B (cytosolic iron-sulfur assembly component 2B), component of the CIA targeting complex, endogenous; source: endogenous, Flp-In T-REx 293 lysate

Key:
Assay in all cases: affinity purification with mass spectrometry; anti-HA beads on lysates of Flp-In 293 cells expressing the 3HA-3FLAG-tagged bait (NUBP2, wildtype or mutant CIAO3); targeted proteomics assay (parallel reaction monitoring) of CIA components and substrates; CIAO3 purifications normalised to CIAO3; wildtype CIAO3 cells also treated with FAC or DFO for 8 h
Details in all cases: partners not purified
[1] = target: T1, 3HA-3FLAG-CIAO3, wildtype (human, UniProt Q9H6Q4 1-476)
T1 construct: human CIAO3 (NARFL) cDNA, amplified with primers from the start codon to the stop codon, in pcDNA5/FRT with an N-terminal tandem 3xHA-3xFLAG tag; also called 3HA-3FLAG-tagged CIAO3; wildtype CIAO3; source: Flp-In T-REx 293, stably expressed, induced with doxycycline, in lysate; not shown: 3xHA, N-terminal, kept; 3xFLAG, N-terminal, kept
T1 sequence (Q9H6Q4 whole entry): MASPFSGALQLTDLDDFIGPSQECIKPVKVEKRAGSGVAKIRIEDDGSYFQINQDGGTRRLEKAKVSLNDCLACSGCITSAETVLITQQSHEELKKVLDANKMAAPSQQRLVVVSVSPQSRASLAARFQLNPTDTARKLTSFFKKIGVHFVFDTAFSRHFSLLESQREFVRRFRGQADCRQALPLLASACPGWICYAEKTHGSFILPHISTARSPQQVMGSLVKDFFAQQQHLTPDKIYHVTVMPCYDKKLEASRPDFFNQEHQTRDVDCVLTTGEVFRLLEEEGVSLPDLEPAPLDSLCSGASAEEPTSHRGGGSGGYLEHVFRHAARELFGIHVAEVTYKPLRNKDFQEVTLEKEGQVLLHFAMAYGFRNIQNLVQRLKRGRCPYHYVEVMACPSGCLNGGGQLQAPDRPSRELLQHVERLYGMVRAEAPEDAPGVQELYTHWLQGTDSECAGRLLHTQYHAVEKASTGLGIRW

3HA-3FLAG-CIAO3-C71S = target: T2, 3HA-3FLAG-CIAO3-C71S (human, UniProt Q9H6Q4 1-476, C71S)
T2 construct: human CIAO3 (NARFL), as m13, with C71S (N-terminal Fe-S cluster site); also called C71S mutant; source: Flp-In T-REx 293, stably expressed, induced with doxycycline, in lysate; not shown: 3xHA, N-terminal, kept; 3xFLAG, N-terminal, kept
T2 sequence (Q9H6Q4 whole entry C71S): as the sequence (Q9H6Q4 whole entry) above, with C71S counted along it

[2] = target: T3, 3HA-3FLAG-CIAO3-C190S/C395S (human, UniProt Q9H6Q4 1-476, C190S | C395S)
T3 construct: human CIAO3 (NARFL), as m13, with C190S and C395S (C-terminal Fe-S cluster site); also called C190S/C395S mutant; source: Flp-In T-REx 293, stably expressed, induced with doxycycline, in lysate; not shown: 3xHA, N-terminal, kept; 3xFLAG, N-terminal, kept
T3 sequence (Q9H6Q4 whole entry C190S/C395S): as the sequence (Q9H6Q4 whole entry) above, with C190S, C395S counted along it

[3] = target: T4, 3HA-3FLAG-CIAO3-C71S/C190S/C395S (human, UniProt Q9H6Q4 1-476, C71S | C190S | C395S)
T4 construct: human CIAO3 (NARFL), as m13, with C71S, C190S and C395S; also called C71S/C190S/C395S mutant; source: Flp-In T-REx 293, stably expressed, induced with doxycycline, in lysate; not shown: 3xHA, N-terminal, kept; 3xFLAG, N-terminal, kept
T4 sequence (Q9H6Q4 whole entry C71S/C190S/C395S): as the sequence (Q9H6Q4 whole entry) above, with C71S, C190S, C395S counted along it

| Binder | fold reduction in iron-deficient (DFO) against iron-replete (FAC) conditions [1] [fold] | fold reduction against wildtype CIAO3 (3HA-3FLAG-CIAO3-C71S) [fold] | fold reduction against wildtype CIAO3 [2] [fold] | fold reduction against wildtype CIAO3 [3] [fold] | fold decrease against wildtype CIAO3 (3HA-3FLAG-CIAO3-C71S) [fold] | fold change against wildtype CIAO3 [3] [fold] |
| --- | --- | --- | --- | --- | --- | --- |
| B1 | ~4 | > 32 | > 32 | > 32 | – | – |
| B2 | ~4 | > 32 | > 32 | > 32 | – | – |
| B3 | – | – | – | – | ~5 | 2 |
| B4 | – | – | – | – | ~5 | 2 |
| B5 | – | – | – | – | ~5 | 2 |
